Measured values: patent publication US20110293610A1 (published 2011)
Substitutions are numbered along the chain they refer to.

B1: I075A02 (scFv)
scFv: QVQLVQSGAEVKKPGSSVKVSCRASGGSFNHAISWVRQAPGRGLEWMGGILPMYGTANYAQKFQGRVTITADKLTNTVYMDLSRLRYEDTAVYYCARELGLSIVGATTGALDMWGRGTLVTVSSGGGGSGGGGSGGGGSAQSVVTQPPSASGTPGQRVTVSCSGGRSNIGSNTVSWYQQLPGTAPKLLIYSNDERPSGVPDRFSGSNSGTSASLAISGLQSEDEADYYCAAWDDSLNGVAFGGGTKLTVLG
B2: I078D08 (scFv)
scFv: QVNLRESGGGLVQPGGSLRLSCAASGFTFSSYWMSWVRQAPGKGLEWVANIKQDGSEKYYVDSVKGRFTISRDNSKNTLYLQMNSLRAEDTAVYYCARDAQSYYDILTGYQSYAFDIWGQGTTVTVSSGGGGSGGGGSGGGGSSELTQDPAVSVALGQTVRITCQGDSLRSYYTNWFQQKPGQAPLLVVYAKNKRPSGIPDRFSGSSSGNTASLTITGAQAEDEADYYCHSRDSSGNHVLFGGGTKLTVLG
B3: I068C08 (scFv)
scFv: QVQLQQSGAEVKKPGSSVKVSCQASGGSFSREGISWVRQAPGHGLEWMGRIIPVLGVADYAQKFQGRVKISVDRLTSVAYMELTSLRFEDTAVYYCAREGMNDFINSHHYYTMDAWGQGTLVTVSSGGGGSGGGGSGGGGSAQAVLTQPSSVSGAPGQRVTISCTGSSSNIGAGYDVHWYQQLPGTAPKLLIYGNSNRPSGVPDRFSGSKSGTSASLAITGLQAEDEADYYCQSYDSSLSGSVFGGGTKLTVLG
B4: I078D02 (scFv)
scFv: QVQLQQSGAEVKKPGASVKVSCKASGYTFTSYGISWVRQAPGQGLEWMGWISAYNGNTNYAQKLQGRVTMTTDTSTSTAYMELRSLRSDDTAVYYCARVYYDILTGYNLFFDYWGKGTMVTVSSGGGGSGGGGSGGGGSQSVLTQPASVSGSPGQSITISCTGTSSDVGGYNYVSWYQQHPGKAPKLMIYEGSKRPSGVSNRFSGSKSGNTASLTISGLQAEDEADYYCSSYTTRSTRVFGGGTKLTVLG
B5: I078H08 (scFv)
scFv: B4 scFv with Q5V, G8A, K116R, M119T
B6: I068F03 (scFv)
scFv: EVQLVQSGADVKKPGASVKVSCKASHYPFTTYGVSWVRQAPGQGLEWMGWISNYNGHTRYAPKFQGRVTLTTDTLTNTAFMELKSLTSDDTAIYYCARAGNEYGHTERPADYWGKGTMVTVSSGGGGSGGGGSGGGGSAQAVLTQPSSVSGAPGQRVTISCTGSSSNIGAGYDVHWYQQLPGTTPKLLISRNNNRPPGVPDRFSGSKSGTSASLAITGLQAEDEADYYCQSYDTTLRGWVFGGGTKVTVLG
B7: I068B04 (scFv)
scFv: QVQLVQSGAEVKKPGSSVKVSCKASGGTVSSRTISWVRQAPGQGLEWMGGSLPPSGAPIYAQKFQGRVAITADALTNTAFMELRSLKSDDTAVYYCARDQGRYLDLWGRGTLVTVSSGGGGSGGGGSGGGGSALPVLTQPPSASATPGQRVTISCSGSSSNIGSNYVYWYQQLPGTAPKVLIYRNNQRPSGVPDRFSGSRSGTSASLAISGLRSEDEADYYCATWDDSLSGPVFGGGTKVTVLG
B8: I075G01 (scFv)
scFv: QVQLVQSGAEVKKPGASVKVSCKTSGYTFTGYNINWVRQAPGQGLEWMGWVSPSNGDTSYAQTFQGRVTMTRDTSISTAYMELSSLKSDDTAVYYCARDHFDTLTGYFRRLDSWGQGTLVTVSSGGGGSGGGGSGGGGSALSSELTQDPEVSVALGQTVTITCQGDSLITHYASWFQQKPGQAPLLVFYSKDKRPSGIPDRFSGSYSGNTASLTITGAQAEDEADYYCNSRDSRGKNHVAFGGGTKLTVLG
B9: I069B07 (scFv)
scFv: QVQLVQSGAEVKKPGASVKVSCKASGYTFTSYGISWVRQAPGQGLEWMGWISAYNGNTNYAQKLQGRVTMTTDTSTSTAYMELRSLRSEDTAVYYCARMEYDILTGYYGGYFDYWGQGTMVTVSSGGGGSGGGGSGGGGSQSVLTQPASVSGSPGQSITISCTGTSSDVGGYNYVSWYQQHPGKAPKLMIYEGSKRPSGVSNRFSGSKSGNTASLTISGLQAEDEADYYCSSYTTRSTRVFGGGTKLTVLG
B10: I030A10 (scFv)
scFv: QVQLVQSGAEVKKPGSSVKVSCRASGGSFNHAISWVRQAPGRGLEWMGGILPMYGTANYAQKFQGRVTITADKLTNTVYMDLSRLRYEDTAVYYCARELGLSIVGATTGALDMWGRGTLVTVSSGGGGSGGGGSGGGGSAQAVLTQPSSVSGAPGQRVIISCTGSSSNIGPDYDVHWYQQLPGTAPKLLIYGNNNRPSGVPDRFSGSKSGTSASLAITGLQAEDEAHYYCQSYGSSLSGVVFGGGTKVTVLG
B11: I075F12 (scFv)
scFv: QVQLVQSGAEVKKPGSSVKVSCKASGGTVSSRTISWVRQAPGQGLEWMGGSLPPSGAPIYAQKFQGRVAITADALTNTAFMELRSLKSDDTAVYYCARDQGRYLDLWGQGTMVTVSSGGGGSGGGGSGGGGSAQAVLTQPSSASGTPGQRATISCSGSSSDIGINAVNWYKQLPRTAPKLLIYRNNQRPSGVPDRFSGSKSGTSASLAIIGLQSEDEADYYCATWDDSLTAYVFGTGTKVTVLG
B12: I072B09 (scFv)
scFv: QVQLQQSGAEVKKPGASVKVSCRASGYTFTKYTMHWVRQAPGQGPEWMGWINGGSGDTKYSRKFQGRVTITKDTSASAAYMELSSLGSEDTALYYCARATYDPLTGYSFDGFDIWGQGTLVTVSSGGGGSGGGGSGGGGSSELTQDPAVSVALGQTVRITCQGDSLRSYYTNWFQQKPGQAPLLVVYAKNKRPSGIPDRFSGSSSGNTASLTITGAQAEDEADYYCNSRDSSGNHVVFGGGTKLTVLD
B13: I002A01-R (scFv)
scFv: QVQLVQSGAEVKKPGSSVKVSCRASGGSFNRHAISWVRQAPGRGLEWMGGILPMYGTANYAQKFQGRVTITADKLTNTVYMDLSRLRYEDTAVYYCARELGLSIVGATTGALDMWGKGTLVTVSSGGGGSGGGGSGGGGSALPVLTQPPSVSVAPGQTATLTCGGTNFGRQSVHWYQQKPGQAPVLAIYHDDVRPSGIPERLSGSKSGNTATLTISRVEAGDEAAYYCQVWDSGSDVVVFGGGTKLTVLG
B14: I002A01-K (scFv)
scFv: B13 scFv with R31K
B15: I065D08 (scFv)
scFv: GVQLVQSGAEVKKPGASVKVSCKASGYTFTSYGISWVRQAPGQGLEWMGWISAYNGNTNYAQKLQGRVTMTTDTSTSTAYMELRSLRSDDTAVYYCARTPSSVYDLLTGYYHYFYSYMDVWGRGTMVTVSSGGGGSGGGGSGGGGSQSVLTQPASVSGSPGQSITISCTGTSSDVGGYNYVSWYQQHPGEAPKLMIYEGSKRPSGVSNRFSGSKSGNTASLTISGLQAEDEADYYCSSYTTRSTRVFGGGTKLTVLG
B16: I065F08 (scFv)
scFv: QVQLQQSGAEVKKPGSSVKVSCKASGDTFSSFGISWVRQVPGQGLEWMGAIIPKFDIVTYAEEFKGRVTISADKLTNTAYMEVKSLRSEDTAVYYCTREKSAAGYFDYWGKGTLVTVSSGGGGSGGGGSGGGGSDIVMTQSPSTLSASVGDRVTITCRASQGISSWLAWYQQKPGRAPKVLIYKASTLESGVPSRFSGSGSGTDFTLTISSLQPEDFATYYCQQSYSTPWTFGQGTKLEIKR
B17: I064C04 (scFv)
scFv: QVQLVQSGAEVKKPGASVKVSCEASGYTFTSYGISWVRQAPGQGLEWMGWISTYNGNTRYPQKLQGRVTMTTDTSTSTAYMDLRSLRSDDTAVYYCARDGRLSYDILTGYYARDYYGMDDWGRGTMVTVSSGGGGSGGGGSGGGGSQSVLTQPASVSGSPGQSITISCTGTSSDVGGYNYVSWYQQHPGKAPKLMIYEGSKRPSGVSNRFSGSKSGNTASLTISGLQAEDEADYYCSSYTTRSTRVFGGGTKLTVLG
B18: I026C04-R (scFv)
scFv: QVQLVQSGAEVKKPGSSVKVSCRASGGSFNRHAISWVRQAPGRGLEWMGGILPMYGTANYAQKFQGRVTITADKLTNTVYMDLSRLRYEDTAVYYCARELGLSIVGATTGALDMWGKGTLVTVSSGGGGSGGGGSGGGGSAQSVLTQPPSVSAAPGQKVTISCSGSSSNIGNNYVSWYQQIPGTAPKLLIYENNKRPSGIPDRFSGSKSGASATLDITGLQTGDEADYYCGTWHSSQVVFGGGTKLTVLG
B19: I067B10 (scFv)
scFv: QMQLVQSGAEVKKPGASVKVSCKASGYTFTSYYMHWVRQAPGQGLEWMGWINAGNSNTKYSQKFQGRVTITSDTSASTAYMELSGLRSEDTAVYYCARDRGAPNYDILTGYYAPAQGVAFDIWGKGTLATVSSGGGGSGGGGSGGGGSQSVLTQPPSVSAAPGQKVTISCSGSTSNIGNNYVSWYQQHPGKAPKLMIYDVSKRPSGVPDRFSGSKSGNSASLDISGLQSEDEADYYCAAWDDSLSEFLFGTGTKLTVLG
B20: I064C07 (scFv)
scFv: QVQLVQSGAEVKKPGSSVKVSCKASGGTFSSYAISWVRQAPGQGLEWMGGIIPIFGTANYAQKFQGRVTITADDLTRTAYMEMSSLKFEDTAVYYCASSEGTIFGVDWGRGTLVTVSSGGGGSGGGGSGGGGSDIQMTQSPSFLSASVGDRVTITCRASQGINNYLAWYQQKPGRAPKLLMYAASSLQSGVPSRFSGSGSGTDFTLTISSLQPEDFATYYCLQDSDYPLTFGGGTKLEIKR
B21: I067F05 (scFv)
scFv: QVQLQQSGAEVKKPGSSVKVSCKASGGTFSSYAISWVRQAPGQGLEWMGRIIPIVNMANYAQKFQGRVTLTADKSTGTAYMELTSLRSEDTAVYYCARENYDSLTGYYGAFDIWGKGTMVTVSSGGGGSGGGGSGGGGSQSVLTQPASVSGSPGQSITISCTGTSSDVGGYNYVSWYQQHPGKAPKLMIYEGSKRPSGVSNRFSGSKSGNTASLTISGLQAEDEADYYCSSYTTRSTRVFGGGTKLTVLG

target: T1, biotinylated B Lymphocyte Stimulator, soluble form (human, UniProt Q9Y275 134-285, biotinylated with NHS-biotin, molar ratio 20:1 biotin:protein); test: phage scFv, receptor binding inhibition on IM9 cells
T1 construct: also called bio-B Lymphocyte Stimulator; free B Lymphocyte Stimulator
Procedure: All of the unique phage scFvs from panel 2 were assessed for their ability to inhibit B Lymphocyte Stimulator binding to its cognate receptor on IM9 cells. The biotinylation of B Lymphocyte Stimulator, maintenance of IM9 cells and receptor binding inhibition assay were performed as described in Example 3.

| Binder | binding result |
| --- | --- |
| B1 | binds |
| B2 | binds |
| B3 | binds |
| B4 | binds |
| B5 | binds |
| B6 | binds |
| B7 | binds |
| B8 | binds |
| B9 | binds |
| B10 | binds |
| B11 | binds |
| B12 | binds |
| B13 | binds |
| B14 | binds |
| B15 | binds |
| B16 | binds |
| B17 | binds |
| B18 | binds |
| B19 | binds |
| B20 | binds |
| B21 | binds |
